B1: Azoarcus group I ribozyme (parent)
chain: GUGCCUUGCGCCGGGAAACCACGCAAGGGAUGGUGUCAAAUUCGGCGAAACCUAAGCGCCCGCCCGGGCGUAUGGCAACGCCGAGCCAAGCUUCGGCGCCUGCGCCGAUGAAGGUGUAGAGACUAGACGGCACCCACCUAAGGCAAACGCUAUGGUGAAGGCAUAGUCCAGGGAGUGGCGAAAGUCACACAAACCGG

Variants of: B1
Assay: reverse-splicing fitness (ratio to wild type); higher = more active; in vitro selection; Mg2+ level not given
Procedure, shortened: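 An in vitro group I ribozyme library with randomized positions was T7-transcribed and gel-purified. In triplicate, 10 pmol RNA in EPPS pH 7.5 was reacted with 50 pmoles of a 30-nt RNA substrate for 1 h at 37 °C across several added MgCl2 levels (1–48 mM), then stopped with EDTA. Products were reverse transcribed from a substrate-complementary primer, PCR-amplified and sequenced (HiSeq 4000). Fitness is a variant's read proportion after selection over that before, normalised to wild type.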
In the case of GUGCCUUGCGCCGGGAAACCACGCAAGGGAUGGUGUCAAAUUCGGCGAAACCUAAGCGCCCGCCCGGGCGUAUGGCAACGCGGAGCCAAGCUUCGGCGCCUGCGCCGAUGUAGGUGUAGAGACUAGACGGCACCCACCUAAGGCAAACGCUAUGGUGAAGGCAUAGUCCAGGGAGUGGCGAAAGUCACACAAACCGG, the reverse-splicing fitness is reported as 0.387.
In the case of GUGCCUUGCGCCGGGAAACCACGCAAGGGAUGGUGUCAAAUUCGGCGAAACCUAAGCGCCCGCCCGGGCGUAUGGCAACGCGGAGCCAAGCUUCGGCGCCUGCGCCGAUGUAGGUGUAGCGACUAGACGGCACCCACCUAAGGCCAACGGUAUGGUGAAGGCAUAGUCGAGGGAGUGGCGAAAGUCACACAAACCGG, the reverse-splicing fitness is reported as 0.00735.
With GUGCCUUGCGCCGGGAAACCACGCAAGGGAUGGUGUCAAAUUCGGCGAAACCUAAGCGCCCGCCCGGGCGUAUGGCAACGCGGAGCCAAGCUUCGGCGCCUGCGCCGAUGUAGGUGUAGCGACUAGACGGCACCCACCUAAGGCCAACGGUAUGGUGAAGGCAUAGUCAAGGGAGUGGCGAAAGUCACACAAACCGG the reverse-splicing fitness was 0.0104.
Work on GUGCCUUGCGCCGGGAAACCACGCAAGGGAUGGUGUCAAAUUCGGCGAAACCUAAGCGCCCGCCCGGGCGUAUGGCAACGCGGAGCCAAGCUUCGGCGCCUGCGCCGAUGUAGGUGUAGCGACUAGACGGCACCCACCUAAGGCCAACGAUAUGGUGAAGGCAUAGUCCAGGGAGUGGCGAAAGUCACACAAACCGG yielded a reverse-splicing fitness of 0.0109.
Work on GUGCCUUGCGCCGGGAAACCACGCAAGGGAUGGUGUCAAAUUCGGCGAAACCUAAGCGCCCGCCCGGGCGUAUGGCAACGCGGAGCCAAGCUUCGGCGCCUGCGCCGAUGUAGGUGUAGCGACUAGACGGCACCCACCUAAGGCCAACGGUAUGGUGAAGGCAUAGUCCAGGGAGUGGCGAAAGUCACACAAACCGG yielded a reverse-splicing fitness of 0.0104.
Work on GUGCCUUGCGCCGGGAAACCACGCAAGGGAUGGUGUCAAAUUCGGCGAAACCUAAGCGCCCGCCCGGGCGUAUGGCAACGCGGAGCCAAGCUUCGGCGCCUGCGCCGAUGUAGGUGUAGCGACUAGACGGCACCCACCUAAGGCCAACGAUAUGGUGAAGGCAUAGUCCAGGGAGAGGCGAAAGUCACACAAACCGG yielded a reverse-splicing fitness of 0.0111.
GUGCCUUGCGCCGGGAAACCACGCAAGGGAUGGUGUCAAAUUCGGCGAAACCUAAGCGCCCGCCCGGGCGUAUGGCAACGCGGAGCCAAGCUUCGGCGCCUGCGCCGAUGUAGGUGUAGCGACUAGACGGCACCCACCUAAGGCCAACGAUAUGGUGAAGGCAUAGUCCAGGGAGGGGCGAAAGUCACACAAACCGG showed a reverse-splicing fitness of 0.0066.
In the case of GUGCCUUGCGCCGGGAAACCACGCAAGGGAUGGUGUCAAAUUCGGCGAAACCUAAGCGCCCGCCCGGGCGUAUGGCAACGCGGAGCCAAGCUUCGGCGCCUGCGCCGAUGUAGGUGUAGCGACUAGACGGCACCCACCUAAGGCCAACGAUAUGGUGAAGGCAUAGUCCAGGGAGCGGCGAAAGUCACACAAACCGG, the reverse-splicing fitness is reported as 0.0127.
Work on GUGCCUUGCGCCGGGAAACCACGCAAGGGAUGGUGUCAAAUUCGGCGAAACCUAAGCGCCCGCCCGGGCGUAUGGCAACGCGGAGCCAAGCUUCGGCGCCUGCGCCGAUGUAGGUGUAGCGACUAGACGGCACCCACCUAAGGCCAACGGUAUGGUGAAGGCAUAGUCAAGGGAGAGGCGAAAGUCACACAAACCGG yielded a reverse-splicing fitness of 0.0101.
Variant GUGCCUUGCGCCGGGAAACCACGCAAGGGAUGGUGUCAAAUUCGGCGAAACCUAAGCGCCCGCCCGGGCGUAUGGCAACGCGGAGCCAAGCUUCGGCGCCUGCGCCGAUGUAGGUGUAGCGACUAGACGGCACCCACCUAAGGCCAACGGUAUGGUGAAGGCAUAGUCAAGGGAGCGGCGAAAGUCACACAAACCGG has a reverse-splicing fitness of 0.00917.
With GUGCCUUGCGCCGGGAAACCACGCAAGGGAUGGUGUCAAAUUCGGCGAAACCUAAGCGCCCGCCCGGGCGUAUGGCAACGCGGAGCCAAGCUUCGGCGCCUGCGCCGAUGUAGGUGUAGCGACUAGACGGCACCCACCUAAGGCCAACGGUAUGGUGAAGGCAUAGUCAAGGGAGGGGCGAAAGUCACACAAACCGG the reverse-splicing fitness was 0.00634.
In the case of GUGCCUUGCGCCGGGAAACCACGCAAGGGAUGGUGUCAAAUUCGGCGAAACCUAAGCGCCCGCCCGGGCGUAUGGCAACGCGGAGCCAAGCUUCGGCGCCUGCGCCGAUGGAGGUGUAGAGACUAGACGGCACCCACCUAAGGCAAACGCUAUGGUGAAGGCAUAGUCCAGGGAGGGGCGAAAGUCACACAAACCGG, the reverse-splicing fitness is reported as 0.0956.
In the case of GUGCCUUGCGCCGGGAAACCACGCAAGGGAUGGUGUCAAAUUCGGCGAAACCUAAGCGCCCGCCCGGGCGUAUGGCAACGCGGAGCCAAGCUUCGGCGCCUGCGCCGAUGGAGGUGUAGAGACUAGACGGCACCCACCUAAGGCAAACGCUAUGGUGAAGGCAUAGUCCAGGGAGAGGCGAAAGUCACACAAACCGG, the reverse-splicing fitness is reported as 0.277.
GUGCCUUGCGCCGGGAAACCACGCAAGGGAUGGUGUCAAAUUCGGCGAAACCUAAGCGCCCGCCCGGGCGUAUGGCAACGCGGAGCCAAGCUUCGGCGCCUGCGCCGAUGGAGGUGUAGAGACUAGACGGCACCCACCUAAGGCAAACGCUAUGGUGAAGGCAUAGUCCAGGGAGCGGCGAAAGUCACACAAACCGG gave a reverse-splicing fitness of 0.279.
In the case of GUGCCUUGCGCCGGGAAACCACGCAAGGGAUGGUGUCAAAUUCGGCGAAACCUAAGCGCCCGCCCGGGCGUAUGGCAACGCGGAGCCAAGCUUCGGCGCCUGCGCCGAUGGAGGUGUAGAGACUAGACGGCACCCACCUAAGGCAAACGCUAUGGUGAAGGCAUAGUCUAGGGAGGGGCGAAAGUCACACAAACCGG, the reverse-splicing fitness is reported as 0.00625.

From the RNAGym collection of RNA variant scans (doi:10.1093/molbev/msab373)
